From the supplement of paper PMC10724198
± gives the standard deviation of the averaged measurements.

The sequences below were run on Saccharomyces cerevisiae (assay: protein stability index of tFT-peptide fusion (C-terminal peptide) (PSI (0-1 scale)); higher = more stable (slower turnover)). Details: genetic background: wild type; temperature: 30 C.
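Further: PSI is a weighted mean of sequencing reads over stability bins, variants kept only with over 10 reads, mCherry proximal and sfGFP distal, peptide attached via GGGS linker.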

PPPPPFLPPTPP and PPPPPLPLPLPS are within error of each other in protein stability index: 0.622 ± 0.041 for the first, 0.728 ± 0.066 for the second.

PPPPPLPPPSPF and PPPPPPLPSLPR are within error of each other in protein stability index: 0.734 ± 0.06 for the first, 0.678 ± 0.089 for the second.

PPPPPPPAPPLP and PPPPPPPHSPPS are within error of each other in protein stability index: 0.648 ± 0.044 for the first, 0.664 ± 0.035 for the second.

First: PPPPPPPLPPFT
Second: PPPPPPPPALSS
The protein stability index of the first is lower: 0.681 ± 0.015 for the first, 0.7163 ± 0.0034 for the second.

PPPPPPPPHLLP and PPPPPPPPPSSP are within error of each other in protein stability index: 0.658 ± 0.027 for the first, 0.701 ± 0.057 for the second.

PPPPPPPRALNL and PPPPPPPTSRPP are within error of each other in protein stability index: 0.687 ± 0.038 for the first, 0.644 ± 0.03 for the second.

PPPPPPTPAPPP and PPPPPQSRASSP are within error of each other in protein stability index: 0.711 ± 0.044 for the first, 0.738 ± 0.022 for the second.

PPPPPRPFLPPP and PPPPPRPLPPLP are within error of each other in protein stability index: 0.654 ± 0.058 for the first, 0.695 ± 0.043 for the second.

PPPPPSPAPSLR and PPPPPSSPPASP are within error of each other in protein stability index: 0.723 ± 0.052 for the first, 0.653 ± 0.03 for the second.

PPPPPSSPPPPA and PPPPPTPHTPLL are within error of each other in protein stability index: 0.639 ± 0.099 for the first, 0.672 ± 0.031 for the second.

Going from PPPPPTPPHQPR to PPPPPTPSTRTS, the protein stability index falls from 0.79 ± 0.022 to 0.667 ± 0.015.

PPPPPVSSPLVT and PPPPRATLPRPP are within error of each other in protein stability index: 0.657 ± 0.048 for the first, 0.681 ± 0.044 for the second.

Compared with PPPPRPSPPSLP, PPPPSCPHSAPL is lower in protein stability index: 0.676 ± 0.0058 for the first, 0.637 ± 0.008 for the second.

PPPPSHPSPPPP and PPPPSLPTPRPP are within error of each other in protein stability index: 0.654 ± 0.021 for the first, 0.662 ± 0.012 for the second.

Compared with PPPPSPPPILPP, PPPPSRPPSPGP is higher in protein stability index: 0.64 ± 0.01 for the first, 0.6691 ± 0.00067 for the second.

PPPPSVCPRFPI and PPPPTPLPPPDP are within error of each other in protein stability index: 0.785 ± 0.12 for the first, 0.68 ± 0.035 for the second.

PPPPTPRYRAPL and PPPPVLPPPLPP are within error of each other in protein stability index: 0.671 ± 0.057 for the first, 0.7 ± 0.012 for the second.

PPPPVPRPRLPI and PPPPYPLPASCL are within error of each other in protein stability index: 0.648 ± 0.099 for the first, 0.653 ± 0.058 for the second.

PPPPYPSTRHSP and PPPQPPPSPPPP are within error of each other in protein stability index: 0.6564 ± 0.0021 for the first, 0.67 ± 0.097 for the second.

PPPQTRPPTPTP and PPPRARPHAPPL are within error of each other in protein stability index: 0.741 ± 0.081 for the first, 0.653 ± 0.017 for the second.

PPPRLNPLPPAC and PPPRLPSRPPPP are within error of each other in protein stability index: 0.731 ± 0.066 for the first, 0.716 ± 0.032 for the second.

PPPRLRSPHGLF and PPPRPPLPPPLP are within error of each other in protein stability index: 0.718 ± 0.08 for the first, 0.692 ± 0.032 for the second.

Compared with PPPRPPPPPPVP, PPPRPRLSRLLH is lower in protein stability index: 0.707 ± 0.041 for the first, 0.6114 ± 0.0012 for the second.

PPPRSLPPISPV and PPPRTFSSSFHV are within error of each other in protein stability index: 0.623 ± 0.02 for the first, 0.6366 ± 0.0043 for the second.

First: PPPSHLHLPSPA
Second: PPPSPPAQSLRS
The protein stability index of the first is lower: 0.53 ± 0.0095 for the first, 0.759 ± 0.079 for the second.

PPPSPPSGALTP and PPPSPSPPPSSP are within error of each other in protein stability index: 0.763 ± 0.053 for the first, 0.698 ± 0.039 for the second.

First: PPPSPSTPKTTL
Second: PPPSRPSHPPPA
The protein stability index of the first is higher: 0.6943 ± 0.0068 for the first, 0.628 ± 0.015 for the second.

PPPSSPPSPVIR and PPPTLPPPPPAL are within error of each other in protein stability index: 0.694 ± 0.056 for the first, 0.711 ± 0.033 for the second.

Going from PPPTLPSPPSPP to PPPTLYPPPFPP, the protein stability index falls from 0.712 ± 0.011 to 0.659 ± 0.027.

Compared with PPPTRAPPPKPG, PPPVPPRFAVRP is higher in protein stability index: 0.621 ± 0.028 for the first, 0.6678 ± 0.0015 for the second.

PPPWPSLCLPPS and PPPYAPLPPTWP are within error of each other in protein stability index: 0.706 ± 0.048 for the first, 0.726 ± 0.023 for the second.

PPPYPFPHLSPL and PPPYPSYPPRPN are within error of each other in protein stability index: 0.713 ± 0.029 for the first, 0.724 ± 0.032 for the second.

PPQHRNPAVRRH and PPRAPLPRPPQP are within error of each other in protein stability index: 0.667 ± 0.023 for the first, 0.656 ± 0.011 for the second.

PPRAPSPLPPPL and PPRLDLPFPLSR are within error of each other in protein stability index: 0.704 ± 0.027 for the first, 0.747 ± 0.08 for the second.

PPRPDRSSLPPF and PPRPLTPAPSDT are within error of each other in protein stability index: 0.712 ± 0.037 for the first, 0.682 ± 0.014 for the second.

Going from PPRPPCSPLPPR to PPRPPPPPAHPP, the protein stability index falls from 0.678 ± 0.052 to 0.557 ± 0.029.

PPRPPPPPSPPL and PPRPPPSSPHLV are within error of each other in protein stability index: 0.745 ± 0.027 for the first, 0.698 ± 0.023 for the second.

PPRPPRPPPRTP and PPRPPSPAPPPP are within error of each other in protein stability index: 0.694 ± 0.022 for the first, 0.687 ± 0.042 for the second.

PPRPRRPLHRSS and PPRQPFPPILPS are within error of each other in protein stability index: 0.664 ± 0.011 for the first, 0.677 ± 0.046 for the second.

PPRQPLSLLLPL and PPRRPPRPPPPA are within error of each other in protein stability index: 0.6468 ± 0.0016 for the first, 0.701 ± 0.064 for the second.

PPRRSSLSPPLA and PPRSHKPPQMQT are within error of each other in protein stability index: 0.6562 ± 0.0027 for the first, 0.663 ± 0.0082 for the second.

PPRSPRPPPSRP and PPRTMTLSAPLT are within error of each other in protein stability index: 0.72 ± 0.1 for the first, 0.708 ± 0.02 for the second.

PPSALPHPPLPP and PPSARLPPPPPR are within error of each other in protein stability index: 0.718 ± 0.028 for the first, 0.789 ± 0.12 for the second.

PPSHIPASGTKR and PPSHPLTIRPPL are within error of each other in protein stability index: 0.716 ± 0.041 for the first, 0.663 ± 0.014 for the second.

Going from PPSIEAAQPPYF to PPSLFSSTQLLF, the protein stability index rises from 0.681 ± 0.015 to 0.7095 ± 0.0067.

PPSLPLPAPPPP and PPSLPPPSPAPL are within error of each other in protein stability index: 0.66 ± 0.063 for the first, 0.682 ± 0.03 for the second.

First: PPSLPPRPRPPS
Second: PPSPAFTTHLPP
The protein stability index of the first is higher: 0.6411 ± 0.0049 for the first, 0.576 ± 0.0064 for the second.

PPSPALPPSLPV and PPSPAPSPPRPL are within error of each other in protein stability index: 0.682 ± 0.032 for the first, 0.702 ± 0.021 for the second.

Compared with PPSPHHPPPPAL, PPSPPPARPSPA is lower in protein stability index: 0.753 ± 0.0082 for the first, 0.667 ± 0.041 for the second.

Going from PPSPPPPPAHPP to PPSPPPPPPPPP, the protein stability index rises from 0.597 ± 0.01 to 0.6847 ± 0.0032.

Going from PPSPPPPPRPPP to PPSPPPPTGLCL, the protein stability index rises from 0.583 ± 0.019 to 0.745 ± 0.078.

PPSPRHPAPQPR and PPSPRPPPPSPS are within error of each other in protein stability index: 0.679 ± 0.026 for the first, 0.719 ± 0.1 for the second.

PPSPSLPPPPRS and PPSRTPFLPPFR are within error of each other in protein stability index: 0.699 ± 0.055 for the first, 0.691 ± 0.032 for the second.

PPSSPPFLPSRP and PPSSPPPPLPPS are within error of each other in protein stability index: 0.677 ± 0.031 for the first, 0.712 ± 0.035 for the second.

Compared with PPSVILTSASSR, PPTHLLRTHPPA is lower in protein stability index: 0.721 ± 0.011 for the first, 0.68368 ± 0.00032 for the second.

Going from PPTLPPPRTLPL to PPTPPPPSLTPP, the protein stability index rises from 0.6984 ± 0.0052 to 0.746 ± 0.027.

PPTPPRLHRSPP and PPTPPRPPPRTT are the same in protein stability index: 0.69 ± 0.11 for the first, 0.69 ± 0.028 for the second.

PPTPRALFPPLP and PPTTPHPTPTAP are within error of each other in protein stability index: 0.745 ± 0.049 for the first, 0.689 ± 0.033 for the second.

Compared with PPVPPPDLCSAL, PPVSPPSPRLPL is higher in protein stability index: 0.653 ± 0.068 for the first, 0.7329 ± 0.0049 for the second.

First: PPYAPPDHPPFR
Second: PPYDSSYGILLR
The protein stability index of the first is lower: 0.699 ± 0.03 for the first, 0.7666 ± 0.0053 for the second.

PPYIMCPFTPGG and PPYPPPHASPAP are within error of each other in protein stability index: 0.632 ± 0.024 for the first, 0.693 ± 0.039 for the second.

PPYPPPRPKPPR and PPYSPSPRDPFA are within error of each other in protein stability index: 0.699 ± 0.012 for the first, 0.713 ± 0.047 for the second.

Going from PQIIFVSRASYL to PQPNSSEPTSQK, the protein stability index rises from 0.681 ± 0.015 to 0.722 ± 0.011.

PQTAGTHRARVN and PQTPQTSTQAPG are within error of each other in protein stability index: 0.698 ± 0.026 for the first, 0.673 ± 0.01 for the second.

Compared with PQVLSPPLSTSR, PQYLPLLPSPSP is lower in protein stability index: 0.728 ± 0.008 for the first, 0.632 ± 0.048 for the second.

PRALLCLLSRPC and PRAYPSNLPPSP are within error of each other in protein stability index: 0.722 ± 0.1 for the first, 0.721 ± 0.037 for the second.

PRDLRVVRLTSA and PRDSRPLPAYSL are within error of each other in protein stability index: 0.63 ± 0.022 for the first, 0.591 ± 0.028 for the second.

PRFGPPQLPAKA and PRFPYGPFDFSI are within error of each other in protein stability index: 0.754 ± 0.062 for the first, 0.669 ± 0.046 for the second.

PRGALMKGYKPG and PRGLGYHGALVL are within error of each other in protein stability index: 0.663 ± 0.1 for the first, 0.571 for the second.

PRGPPPPAPPPT and PRGRSRPRCVIR are within error of each other in protein stability index: 0.689 ± 0.0075 for the first, 0.684 ± 0.13 for the second.

First: PRIGRPQSLTFH
Second: PRIPHPPRPRPP
The protein stability index of the first is lower: 0.621 ± 0.011 for the first, 0.669 ± 0.024 for the second.

PRLGFFPFPSGP and PRLLPPLGFLTF are within error of each other in protein stability index: 0.709 ± 0.03 for the first, 0.764 ± 0.075 for the second.

PRLPLPPPPLPL and PRLPYPSLFPCT are within error of each other in protein stability index: 0.683 ± 0.026 for the first, 0.678 ± 0.056 for the second.

PRPAAPSPPPLP and PRPAQDAEPIQP are within error of each other in protein stability index: 0.588 ± 0.014 for the first, 0.646 ± 0.098 for the second.

PRPGGHLFLVFS and PRPKNQMAIYRE are within error of each other in protein stability index: 0.679 ± 0.033 for the first, 0.708 ± 0.07 for the second.

PRPLPLPPLALP and PRPLTPPAPPHP are within error of each other in protein stability index: 0.696 ± 0.027 for the first, 0.748 ± 0.041 for the second.

PRPPNPRPPPPP and PRPPPPPASVCR are within error of each other in protein stability index: 0.729 ± 0.071 for the first, 0.6579 ± 0.00069 for the second.

PRPPPRRPDFGL and PRPRRSSLPFPP are within error of each other in protein stability index: 0.825 ± 0.16 for the first, 0.818 ± 0.073 for the second.

PRPSPLSSLSVS and PRRFPFRHATSP are within error of each other in protein stability index: 0.7206 ± 0.0064 for the first, 0.635 ± 0.084 for the second.

Going from PRRLAPPPPPSP to PRRPHDPFPAAP, the protein stability index falls from 0.744 ± 0.012 to 0.686 ± 0.017.
